Experimental data from FireProtDB (doi:10.1021/bi0118052).
Where “and” joins values, the source holds several entries; their conditions need not be identical. Equal values may be shown once.

Conditions: Homo sapiens; pH 7.2; 25 °C; GdnHCl; CD; MOPS 10 mM; KCl 50 mM; reversible: yes; whole UniProt chain shown

B1: Protein S100-B wild type, P04271 (protein)
chain: MSELEKAMVALIDVFHQYSGREGDKHKLKKSELKELINNELSHFLEEIKEQEVVDKVMETLDNDGDGECDFQEFMAFVAMVTTACHEFFEHE
Question: For B1, which “denaturant midpoint (higher = more stable)” value is on record?
Answer: 3.2 M and 4.6 M

Question: What about the unfolding free energy of the same protein?
Answer: 17.3 kcal/mol
